Test results from patent US20260184814A1 (priority 2022, published 2026).

Experiments:
[1] = system: BNA7 from B/Perth/211/2011
FIG. 50B = test: FIG. 50B; parameters: CLEARANCE (μg/ml): unit not given here
N1 and N2 neuraminidases = assay type: biochemical, influenza A virus
IAV and IBV NA antigens = assay type: binding, influenza A virus, influenza B virus
[2] = system: pseudovirus-derived neuraminidase; assay type: biochemical, influenza A virus
[3] = target: group I (H1N1) IAV, group II (H3N2) IAV, and IBV NAs; assay type: biochemical, influenza A virus, influenza B virus
N9 from A/Anhui/1/2013 = assay type: binding

FNI9
IC50 [1]: 23.209 mg/mL

FNI9-LS
AUC (FIG. 50B): 527.46 ± 75.92 µg·days/mL
CLEARANCE (μg/ml) (FIG. 50B): 1.47 ± 0.19
HALF-LIFE (FIG. 50B): 13.37 ± 1.52 days
AUCLAST (FIG. 32): 254.583 µg·days/mL
CLss (FIG. 32): 1.944 mL/day
HALF-LIFE (FIG. 32): 14.198 days
LAMBDA_Z (FIG. 32): 0.05 day⁻¹
Vz (FIG. 32): 40.281 mL

FNI9-v8.1: FNI9 variant with S28T in VH; VH SEQ ID NO:54, VL SEQ ID NO:8
IC50 for inhibiting sialidase activity in a MUNANA assay (N1 and N2 neuraminidases): lower IC50
affinity by surface plasmon resonance (IAV and IBV NA antigens): higher affinity
IC50 for inhibiting sialidase activity in an ELLA assay [2]: lower IC50
in vitro inhibition of sialidase activity (reported as IC50) [3]: improved
binding to N9_A_Anhui_2013, assessed by flow cytometry (N9 from A/Anhui/1/2013): binds more strongly
